# Data published in patent publication US20250011363A1, “OPTIMIZED SHORTENED PEPTIDE THAT BINDS TO ACETYLCHOLINE RECEPTOR, AND USE THEREOF” (SKINMED CO., LTD., priority 2021, published 2025).
# B1: 5mer-394 (peptide)
# peptide: KRRRK
# B2: 5mer-89 (peptide)
# peptide: KRITK
# B3: 5mer-87 (peptide)
# peptide: RQITR
# B4: 5mer-72 (peptide)
# peptide: KLYRR
# B5: 5mer-79 (peptide)
# peptide: RWFLR
# B6: 5mer-388 (peptide)
# peptide: KLFCK
# B7: 5mer-393 (peptide)
# peptide: KSLQR
# B8: 5mer-98 (peptide)
# peptide: KWYCK
# B9: 5mer-370 (peptide)
# peptide: KWRRK
# B10: 5mer-83 (peptide)
# peptide: KGFSR
# B11: 5mer-374 (peptide)
# peptide: KLFTR
# B12: 5mer-92 (peptide)
# peptide: RVRLK
# B13: 5mer-380 (peptide)
# peptide: KRYLK
# B14: 5mer-91 (peptide)
# peptide: RQIQK
# B15: 5mer-373 (peptide)
# peptide: KVFTK
# B16: 5mer-76 (peptide)
# peptide: RGYRR
# B17: 5mer-95 (peptide)
# peptide: RGRRK
# B18: 5mer-94 (peptide)
# peptide: RWFQR
# B19: 5mer-96 (peptide)
# peptide: RVLYR
# B20: 5mer-398 (peptide)
# peptide: KGQCR
# B21: 5mer-376 (peptide)
# peptide: KGQLR
# B22: 5mer-74 (peptide)
# peptide: RQITK
# B23: 5mer-81 (peptide)
# peptide: RGIYR
# B24: 5mer-382 (peptide)
# peptide: RLRQR
# B25: 5mer-381 (peptide)
# peptide: KGQRR
# B26: 5mer-88 (peptide)
# peptide: RRVQK
# B27: 5mer-386 (peptide)
# peptide: RSFLK
# B28: 5mer-78 (peptide)
# peptide: KVICK
# B29: 5mer-84 (peptide)
# peptide: RVVRR
# B30: 5mer-371 (peptide)
# peptide: RGISK
# B31: 5mer-392 (peptide)
# peptide: RSRLR
# B32: 5mer-80 (peptide)
# peptide: KSRTR
# B33: 5mer-77 (peptide)
# peptide: KWRQK
# B34: 5mer-372 (peptide)
# peptide: RSVCR
# B35: 5mer-379 (peptide)
# peptide: KSRLR
# B36: 5mer-75 (peptide)
# peptide: KVQTK
# B37: 5mer-385 (peptide)
# peptide: RGVYR
# B38: 5mer-395 (peptide)
# peptide: RWVCK
# B39: 5mer-390 (peptide)
# peptide: KRFCR
# B40: 5mer-387 (peptide)
# peptide: RRILR
# B41: 5mer-383 (peptide)
# peptide: RWQRK
# B42: 5mer-86 (peptide)
# peptide: RRLCK
# B43: 5mer-85 (peptide)
# peptide: KGVLK
# B44: 5mer-82 (peptide)
# peptide: RQRYK
# B45: 5mer-71 (peptide)
# peptide: KLQSK
# B46: 5mer-378 (peptide)
# peptide: RRLSK
# B47: 5mer-90 (peptide)
# peptide: RWYTK
# B48: 5mer-397 (peptide)
# peptide: RRITK
# B49: 5mer-396 (peptide)
# peptide: KVVCR
# B50: 5mer-391 (peptide)
# peptide: KVFRR
# B51: 5mer-375 (peptide)
# peptide: KQLCR
# B52: 5mer-384 (peptide)
# peptide: KSLRK
# B53: 5mer-389 (peptide)
# peptide: KWRRR
# B54: 5mer-377 (peptide)
# peptide: KGFYK
# B55: 5mer-93 (peptide)
# peptide: KWVYR
# B56: 5mer-97 (peptide)
# peptide: KRQLR
# B57: 5mer-101 (peptide)
# peptide: RQQYR
# B58: 5mer-105 (peptide)
# peptide: RGQQR
# B59: 5mer-406 (peptide)
# peptide: KVYLR
# B60: 5mer-403 (peptide)
# peptide: RRLYK
# B61: 5mer-408 (peptide)
# peptide: KVFRK
# B62: 5mer-399 (peptide)
# peptide: KWIQR
# B63: 5mer-102 (peptide)
# peptide: RGFSK
# B64: 5mer-104 (peptide)
# peptide: RVVLK
# B65: 5mer-409 (peptide)
# peptide: KQIYK
# B66: 5mer-110 (peptide)
# peptide: KRRLK
# B67: 5mer-401 (peptide)
# peptide: RGVLR
# B68: 5mer-402 (peptide)
# peptide: RLRYR
# B69: 5mer-407 (peptide)
# peptide: RQIYK
# B70: 5mer-100 (peptide)
# peptide: KVIRK
# B71: 5mer-107 (peptide)
# peptide: RWVSR
# B72: 5mer-108 (peptide)
# peptide: KWQLK
# B73: 5mer-103 (peptide)
# peptide: RWFLK
# B74: 5mer-405 (peptide)
# peptide: KSYTK
# B75: 5mer-109 (peptide)
# peptide: RLQCR
# B76: 5mer-99 (peptide)
# peptide: RWICK
# B77: 5mer-106 (peptide)
# peptide: KLLQR
# B78: 5mer-404 (peptide)
# peptide: KGYLK
# B79: 5mer-400 (peptide)
# peptide: RWRCK
# Target: acetylcholine receptor
# Assay: SPR, peptide at 10 µM on acetylcholine receptor
row,Binder,Binding affinity (RU)
1,B1,66
2,B2,77
3,B3,55
4,B4,50
5,B5,82
6,B6,78
7,B7,75
8,B8,68
9,B9,67
10,B10,64
11,B11,75
12,B12,62
13,B13,82
14,B14,55
15,B15,87
16,B16,80
17,B17,68
18,B18,50
19,B19,55

row,Binder,Binding affinity (RU)
1,B20,71
2,B21,65
3,B22,87
4,B23,79
5,B24,62
6,B25,87
7,B26,73
8,B27,78
9,B28,79
10,B29,67
11,B30,86
12,B31,87
13,B32,83
14,B33,74
15,B34,54
16,B35,79
17,B36,63
18,B37,51
19,B38,50

row,Binder,Binding affinity (RU)
1,B39,64
2,B40,52
3,B41,56
4,B42,55
5,B43,74
6,B44,84
7,B45,68
8,B46,65
9,B47,86
10,B48,52
11,B49,53
12,B50,72
13,B51,84
14,B52,75
15,B53,57
16,B54,67
17,B55,79
18,B56,52

# Target: acetylcholine receptor
# Assay: SPR, AchR immobilized on CM5 chip, peptide at 10 µM
row,Binder,Binding affinity (RU)
1,B57,55
2,B58,50
3,B59,84
4,B60,64
5,B61,74
6,B62,62
7,B63,82
8,B64,74
9,B65,62
10,B66,76
11,B67,52
12,B68,86
13,B69,58
14,B70,80
15,B71,56
16,B72,77
17,B73,62
18,B74,68
19,B75,68
20,B76,58
21,B77,78
22,B78,83
23,B79,70
